Data taken from patent US20220040297A1 (Chugai, published 2022).
Positions count from the first letter of the chain named. Blank lines part the entries; values can stand above or below the binder they belong to.

Target: CD3ε homodimer protein (human, UniProt P07766 23-126, limits assumed)
Assay: SPR, immobilized CD3ε homodimer;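 also: biacore T200 surface plasmon resonance at 25 °C, antibody variants flowed as analytes over amine-coupled CD3ε homodimer on a CM4 chip, variant binding amount divided by that of GLS3000 antibody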

CD3ε homodimer protein, sequence (P07766 23-126 limits assumed): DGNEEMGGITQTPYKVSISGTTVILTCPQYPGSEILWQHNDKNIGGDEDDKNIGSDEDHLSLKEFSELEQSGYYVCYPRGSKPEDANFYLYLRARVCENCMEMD

- ratio of amounts bound (vs GLS3000): 0.24
B1: GLS3000 P95L (antibody, name in Kabat numbering, V domains shown)
VH: QVQLVESGGGVVQPGRSLRLSCAASGFTFSNAWMHWVRQAPGKGLEWVAQIKAKSNNYATYYAESVKGRFTISRDDSKNSLYLQMNSLKTEDTAVYYCRYVHYGAYYGVDAWGQGTTVTVSS
VL: DIVMTQSPLSLPVTPGEPASISCRSSQSLVHSNRNTYLHWYQQKPGQAPRLLIYKVSNRFSGVPDRFSGSGSGTDFTLKISRVEAEDVGVYYCGQGTQVLYTFGQGTKLEIK
notes: one-arm format as m2

- ratio of amounts bound (vs GLS3000): 0.85
B2: GLS3000 Q93A (antibody, name in Kabat numbering, V domains shown)
VH: B1 VH
VL: B1 VL with Q98A, L100P
notes: one-arm format as m2

- ratio of amounts bound (vs GLS3000): 0.69
B3: GLS3000 R29Y (antibody, name in Kabat numbering, V domains shown)
VH: B1 VH
VL: B1 VL with R34Y, L100P
notes: one-arm format as m2

- ratio of amounts bound (vs GLS3000): 0.31
B4: GLS3000 R29P (antibody, name in Kabat numbering, V domains shown)
VH: B1 VH
VL: B1 VL with R34P, L100P
notes: one-arm format as m2

- ratio of amounts bound (vs GLS3000): 0.88
B5: GLS3000 Q27E (antibody, name in Kabat numbering, V domains shown)
VH: B1 VH
VL: B1 VL with Q27E, L100P
notes: one-arm format as m2

- ratio of amounts bound (vs GLS3000): 0.88
B6: GLS3000 R24T (antibody, name in Kabat numbering, V domains shown)
VH: B1 VH
VL: B1 VL with R24T, L100P
notes: one-arm format as m2

- ratio of amounts bound (vs GLS3000): 0.85
B7: GLS3000 Q90E (antibody, name in Kabat numbering, V domains shown)
VH: B1 VH
VL: B1 VL with Q95E, L100P
notes: one-arm format as m2

- ratio of amounts bound (vs GLS3000): 0.87
B8: GLS3000 Q93Y (antibody, name in Kabat numbering, V domains shown)
VH: B1 VH
VL: B1 VL with Q98Y, L100P
notes: one-arm format as m2

- ratio of amounts bound (vs GLS3000): 0.63
B9: GLS3000 R29A (antibody, name in Kabat numbering, V domains shown)
VH: B1 VH
VL: B1 VL with R34A, L100P
notes: one-arm format as m2

- ratio of amounts bound (vs GLS3000): 0.56
B10: GLS3000 R29L (antibody, name in Kabat numbering, V domains shown)
VH: B1 VH
VL: B1 VL with R34L, L100P
notes: one-arm format as m2

- ratio of amounts bound (vs GLS3000): 0.87
B11: GLS3000 R24Y (antibody, name in Kabat numbering, V domains shown)
VH: B1 VH
VL: B1 VL with R24Y, L100P
notes: one-arm format as m2

- ratio of amounts bound (vs GLS3000): 0.9
B12: GLS3000 R24Q (antibody, name in Kabat numbering, V domains shown)
VH: B1 VH
VL: B1 VL with R24Q, L100P
notes: one-arm format as m2

- ratio of amounts bound (vs GLS3000): 0.68
B13: GLS3000 R29S (antibody, name in Kabat numbering, V domains shown)
VH: B1 VH
VL: B1 VL with R34S, L100P
notes: one-arm format as m2

- ratio of amounts bound (vs GLS3000): 0.86
B14: GLS3000 R24A (antibody, name in Kabat numbering, V domains shown)
VH: B1 VH
VL: B1 VL with R24A, L100P
notes: one-arm format as m2

- ratio of amounts bound (vs GLS3000): 0.58
B15: GLS3000 R54E (antibody, name in Kabat numbering, V domains shown)
VH: B1 VH
VL: B1 VL with R59E, L100P
notes: one-arm format as m2

- ratio of amounts bound (vs GLS3000): 0.69
B16: GLS3000 R54A (antibody, name in Kabat numbering, V domains shown)
VH: B1 VH
VL: B1 VL with R59A, L100P
notes: one-arm format as m2

- ratio of amounts bound (vs GLS3000): 0.92
B17: GLS3000 Q27L (antibody, name in Kabat numbering, V domains shown)
VH: B1 VH
VL: B1 VL with Q27L, L100P
notes: one-arm format as m2

- ratio of amounts bound (vs GLS3000): 0.96
B18: GLS3000 Q93S (antibody, name in Kabat numbering, V domains shown)
VH: B1 VH
VL: B1 VL with Q98S, L100P
notes: one-arm format as m2

- ratio of amounts bound (vs GLS3000): 0.41
B19: GLS3000 R29D (antibody, name in Kabat numbering, V domains shown)
VH: B1 VH
VL: B1 VL with R34D, L100P
notes: one-arm format as m2

- ratio of amounts bound (vs GLS3000): 0.37
B20: GLS3000 R29I (antibody, name in Kabat numbering, V domains shown)
VH: B1 VH
VL: B1 VL with R34I, L100P
notes: one-arm format as m2

- ratio of amounts bound (vs GLS3000): 0.89
B21: GLS3000 R24G (antibody, name in Kabat numbering, V domains shown)
VH: B1 VH
VL: B1 VL with R24G, L100P
notes: one-arm format as m2

- ratio of amounts bound (vs GLS3000): 0.77
B22: GLS3000 R45D (antibody, name in Kabat numbering, V domains shown)
VH: B1 VH
VL: B1 VL with R50D, L100P
notes: one-arm format as m2

- ratio of amounts bound (vs GLS3000): 0.63
B23: GLS3000 R29T (antibody, name in Kabat numbering, V domains shown)
VH: B1 VH
VL: B1 VL with R34T, L100P
notes: one-arm format as m2

- ratio of amounts bound (vs GLS3000): 0.29
B24: GLS3000 Q27P (antibody, name in Kabat numbering, V domains shown)
VH: B1 VH
VL: B1 VL with Q27P, L100P
notes: one-arm format as m2

- ratio of amounts bound (vs GLS3000): 0.75
B25: GLS3000 Q93E (antibody, name in Kabat numbering, V domains shown)
VH: B1 VH
VL: B1 VL with Q98E, L100P
notes: one-arm format as m2

- ratio of amounts bound (vs GLS3000): 0.75
B26: GLS3000 R24D (antibody, name in Kabat numbering, V domains shown)
VH: B1 VH
VL: B1 VL with R24D, L100P
notes: one-arm format as m2

- ratio of amounts bound (vs GLS3000): 0.86
B27: GLS3000 R45Q (antibody, name in Kabat numbering, V domains shown)
VH: B1 VH
VL: B1 VL with R50Q, L100P
notes: one-arm format as m2

- ratio of amounts bound (vs GLS3000): 0.67
B28: GLS3000 R29G (antibody, name in Kabat numbering, V domains shown)
VH: B1 VH
VL: B1 VL with R34G, L100P
notes: one-arm format as m2

- ratio of amounts bound (vs GLS3000): 0.73
B29: GLS3000 Q90S (antibody, name in Kabat numbering, V domains shown)
VH: B1 VH
VL: B1 VL with Q95S, L100P
notes: one-arm format as m2

- ratio of amounts bound (vs GLS3000): 0.17
B30: GLS3000 Q90Y (antibody, name in Kabat numbering, V domains shown)
VH: B1 VH
VL: B1 VL with Q95Y, L100P
notes: one-arm format as m2

- ratio of amounts bound (vs GLS3000): 0.25
B31: GLS3000 Q93P (antibody, name in Kabat numbering, V domains shown)
VH: B1 VH
VL: B1 VL with Q98P, L100P
notes: one-arm format as m2

- ratio of amounts bound (vs GLS3000): 0.67
B32: GLS3000 R54G (antibody, name in Kabat numbering, V domains shown)
VH: B1 VH
VL: B1 VL with R59G, L100P
notes: one-arm format as m2

- ratio of amounts bound (vs GLS3000): 0.43
B33: GLS3000 P95S (antibody, name in Kabat numbering, V domains shown)
VH: B1 VH
VL: B1 VL with L100S
notes: one-arm format as m2

- ratio of amounts bound (vs GLS3000): 0.5
B34: GLS3000 Q90A (antibody, name in Kabat numbering, V domains shown)
VH: B1 VH
VL: B1 VL with Q95A, L100P
notes: one-arm format as m2

- ratio of amounts bound (vs GLS3000): 0.19
B35: GLS3000 Q90D (antibody, name in Kabat numbering, V domains shown)
VH: B1 VH
VL: B1 VL with Q95D, L100P
notes: one-arm format as m2

- ratio of amounts bound (vs GLS3000): 0.72
B36: GLS3000 Q93D (antibody, name in Kabat numbering, V domains shown)
VH: B1 VH
VL: B1 VL with Q98D, L100P
notes: one-arm format as m2

- ratio of amounts bound (vs GLS3000): 0.85
B37: GLS3000 Q27D (antibody, name in Kabat numbering, V domains shown)
VH: B1 VH
VL: B1 VL with Q27D, L100P
notes: one-arm format as m2

- ratio of amounts bound (vs GLS3000): 0.34
B38: GLS3000 R29V (antibody, name in Kabat numbering, V domains shown)
VH: B1 VH
VL: B1 VL with R34V, L100P
notes: one-arm format as m2

- ratio of amounts bound (vs GLS3000): 0.36
B39: GLS3000 R54D (antibody, name in Kabat numbering, V domains shown)
VH: B1 VH
VL: B1 VL with R59D, L100P
notes: one-arm format as m2

- ratio of amounts bound (vs GLS3000): 1.19
B40: GLS3000 Q27R (antibody, name in Kabat numbering, V domains shown)
VH: B1 VH
VL: B1 VL with Q27R, L100P
notes: one-arm format as m2

- ratio of amounts bound (vs GLS3000): 0.27
B41: GLS3000 Q90P (antibody, name in Kabat numbering, V domains shown)
VH: B1 VH
VL: B1 VL with Q95P, L100P
notes: one-arm format as m2

- ratio of amounts bound (vs GLS3000): 0.83
B42: GLS3000 R24E (antibody, name in Kabat numbering, V domains shown)
VH: B1 VH
VL: B1 VL with R24E, L100P
notes: one-arm format as m2

- ratio of amounts bound (vs GLS3000): 1.13
B43: GLS3000 Q93R (antibody, name in Kabat numbering, V domains shown)
VH: B1 VH
VL: B1 VL with Q98R, L100P
notes: one-arm format as m2

- ratio of amounts bound (vs GLS3000): 0.7
B44: GLS3000 R24P (antibody, name in Kabat numbering, V domains shown)
VH: B1 VH
VL: B1 VL with R24P, L100P
notes: one-arm format as m2

- ratio of amounts bound (vs GLS3000): 0.75
B45: GLS3000 R45E (antibody, name in Kabat numbering, V domains shown)
VH: B1 VH
VL: B1 VL with R50E, L100P
notes: one-arm format as m2

- ratio of amounts bound (vs GLS3000): 0.89
B46: GLS3000 R24S (antibody, name in Kabat numbering, V domains shown)
VH: B1 VH
VL: B1 VL with R24S, L100P
notes: one-arm format as m2
